Usually stoichiometry N stands for the number of molecules, sites or subunits per partner or assembly. Broadly, the Kd is a measure of binding affinity in units of concentration.

The chains are these.
T1: human GDNF structured region, residues 110-211 (hGDNF^mat) (human, UniProt P39905 110-211)
T1 chain: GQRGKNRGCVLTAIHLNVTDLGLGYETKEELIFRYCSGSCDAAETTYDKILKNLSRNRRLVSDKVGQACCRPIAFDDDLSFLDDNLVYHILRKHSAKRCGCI

T2: full length, GPI-anchored rat GFRα1 (mGFRα1^FL; HA-rGFRα1^1-468) (rat) (UniProt Q62997)
T2 sequence (chain, GPI-anchor): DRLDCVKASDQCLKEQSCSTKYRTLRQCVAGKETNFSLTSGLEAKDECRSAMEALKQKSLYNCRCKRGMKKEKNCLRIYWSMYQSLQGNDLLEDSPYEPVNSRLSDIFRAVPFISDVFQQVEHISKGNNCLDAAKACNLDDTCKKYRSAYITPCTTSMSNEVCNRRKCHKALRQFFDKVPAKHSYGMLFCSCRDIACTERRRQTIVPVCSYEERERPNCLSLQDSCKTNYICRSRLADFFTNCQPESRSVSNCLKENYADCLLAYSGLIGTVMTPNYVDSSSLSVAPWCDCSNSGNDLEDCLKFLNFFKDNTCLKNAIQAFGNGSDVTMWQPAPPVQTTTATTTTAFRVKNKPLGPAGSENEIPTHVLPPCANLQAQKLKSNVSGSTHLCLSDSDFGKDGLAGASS

B1: zebrafish GDNF residues 134-235 (mature form, zGDNF^mat), crystallised in complex with zGFRα1^D1-D3 (ligand, UniProt Q98TU0 134-235, looked up)
chain: RVKGQGRGCLLKEIHLNVTDLDLGYRTKEELIFRYCSGPCHDAETNYDKILNNLTHNKKLDKDTPSRTCCRPIAFDDDISFLDDSLEYHTLKKHSAKKCACV
modifications: N-linked glycan at the N-glycosylation site of all zGDNF protomers
notes: GDNF, zebrafish, residues 134-235 (mature form); the methods give 135-235 for zGDNF^mat; Covalent dimer
B2: human GFRα1 residues 150-424 (hGFRα1^D2-CT) (domain or fragment)
chain: KGNNCLDAAKACNLDDICKKYRSAYITPCTTSVSNDVCNRRKCHKALRQFFDKVPAKHSYGMLFCSCRDIACTERRRQTIVPVCSYEEREKPNCLNLQDSCKTNYICRSRLADFFTNCQPESRSVSSCLKENYADCLLAYSGLIGTVMTPNYIDSSSLSVAPWCDCSNSGNDLEECLKFLNFFKDNTCLKNAIQAFGNGSDVTVWQPAFPVQTTTATTTTALRVKNKPLGPAGSENEIPTHVLPPCANLQAQKLKSNVSGNTHLCISNGNYEKEG
B3: rat GDNF (rGDNF) (ligand)
chain: SPDKQAAALPRRERNRQAAAASPENSRGKGRRGQRGKNRGCVLTAIHLNVTDLGLGYETKEELIFRYCSGSCEAAETMYDKILKNLSRSRRLTSDKVGQACCRPVAFDDDLSFLDDSLVYHILRKHSAKRCGCI
B4: zebrafish GDNF mature structured region, residues 135-235 (zGDNF^mat) (ligand, UniProt Q98TU0 135-235, looked up)
chain: VKGQGRGCLLKEIHLNVTDLDLGYRTKEELIFRYCSGPCHDAETNYDKILNNLTHNKKLDKDTPSRTCCRPIAFDDDISFLDDSLEYHTLKKHSAKKCACV
notes: GDNF, zebrafish, mature structured region, residues 135-235; The co-expressed form is called untagged; the methods describe no separate untagged construct, so both are kept as one molecule; also called untagged zGDNF^mat; soluble zGDNF^mat; source: Expi293F, secreted; not shown: His6, N-terminal, cleaved
B5: zebrafish GFRα1 residues 20-353 (zGFRα1^D1-D3, lacking the GPI-anchor); ordered portion in the crystal zGFRα1^D2-D3 (domain or fragment, UniProt Q98TT9 144-353, looked up)
chain: EPALAKENNCLNAAKACNLNDTCKKYRSAYISPCTSRVSTAEVCNKRKCHKALRQFFDKVPPKHSYGMLYCSCPLGDQSACSERRRQTIVPACSYEDKERPNCLTLQVSCKTNYICRSRLADFFTNCQPEPLSLSGCLKENYADCLLSYSGLIGTVMTPNYLRSPKISVSPFCDCSSSGNSKEECDRFTEFFTDNACLRNAIQAFGNGTD
modifications: N-linked glycans (8 resolved for the 10 zGFRα1 protomers)
notes: GFRα1a, zebrafish, residues 20-353; In the crystal only D2-D3 is present (D1 clipped)
B6: hGFRα1^D1-CT-K251E (protein)
chain: DRLDCVKASDQCLKEQSCSTKYRTLRQCVAGKETNFSLASGLEAKDECRSAMEALKQKSLYNCRCKRGMKKEKNCLRIYWSMYQSLQGNDLLEDSPYEPVNSRLSDIFRVVPFISDVFQQVEHIPKGNNCLDAAKACNLDDICKKYRSAYITPCTTSVSNDVCNRRKCHKALRQFFDKVPAKHSYGMLFCSCRDIACTERRRQTIVPVCSYEEREKPNCLNLQDSCETNYICRSRLADFFTNCQPESRSVSSCLKENYADCLLAYSGLIGTVMTPNYIDSSSLSVAPWCDCSNSGNDLEECLKFLNFFKDNTCLKNAIQAFGNGSDVTVWQPAFPVQTTTATTTTALRVKNKPLGPAGSENEIPTHVLPPCANLQAQKLKSNVSGNTHLCISNGNYEKEG
B7: human GFRα1 residues 25-424 (hGFRα1^D1-CT) (domain or fragment)
chain: B6 chain with E227K
B8: hGFRα1^D1-CT-L287E (protein)
chain: B6 chain with E227K, L263E
B9: hGFRα1^D1-CT-K251E L287E (protein)
chain: B6 chain with L263E
B10: zebrafish GFRα1 residues 144-368 (zGFRα1^D2-D3+) (domain or fragment, UniProt Q98TT9 144-368, looked up)
chain: EPALAKENNCLNAAKACNLNDTCKKYRSAYISPCTSRVSTAEVCNKRKCHKALRQFFDKVPPKHSYGMLYCSCPLGDQSACSERRRQTIVPACSYEDKERPNCLTLQVSCKTNYICRSRLADFFTNCQPEPLSLSGCLKENYADCLLSYSGLIGTVMTPNYLRSPKISVSPFCDCSSSGNSKEECDRFTEFFTDNACLRNAIQAFGNGTDVSVWHPMPPVQTTTS
notes: GFRα1a, zebrafish, residues 144-368 (D2-D3 and part of the C-tail, lacking D1); also called zGFRα1^144-368; source: Expi293F, secreted; purified (Ni-NTA, SEC) or co-expressed with zGDNF^mat and co-purified; not shown: His6, C-terminal, kept

Positions count from the first letter of the chain named. Numbers in names are those of the source.

Data set [1] concerns the molecule itself. The data set can be described thus: crystal structure; zGDNF^mat-zGFRα1^D1-D3 complex at 2.5 mg/ml in 20 mM Tris pH 7.0, 100 mM NaCl, 1 mM CaCl2; sitting drop, 22 °C; D1 clipped during crystallisation; 2.65 Å, P2_1, ten copies in the asymmetric unit.
The target of data set [2] is T1, human GDNF structured region, residues …. The data set can be described thus: SPR.
Data set [3] deals with T2, full length, GPI-anchored rat GFRα1 (mGFRα1^FL; HA-rGFRα1^1-468) (rat).
Data set [4] deals with B10. The data set can be described thus: native gel or EMSA; blue native PAGE (3-12% Bis-Tris) of Ni2+-NTA purified co-expressed zGDNF^mat-zGFRα1 samples, 2 mg/ml, 10 mM HEPES pH 7.5, 130 mM NaCl, 1 mM CaCl2; time points. Conditions: both partners purified. (In EMSA bound probe runs differently from free probe, usually more slowly.)
Data set [5] concerns the molecule itself. The data set can be described thus: negative-stain electron microscopy; zGDNF^mat-zGFRα1^D2-D3+ cross-linked with 0.1% glutaraldehyde, SEC (Superose 6 Increase) in 20 mM HEPES pH 7.5, 130 mM NaCl, ~700 kDa fraction imaged; reconstruction at 30 Å.

With B1, the “stoichiometry N” value in data set [1] was 2 protomers in each covalent dimer.
The molecule B2 registered a Kd in data set [2] of 71 nM. In other words, the double-digit nanomolar range.
B3 showed an HEK293 cell adhesion assay: proportion of cell clusters of mGFRα1^FL-expressing cells after rat GDNF (200 ng/ml) in data set [3] of 5 fold.
Take B4: the “stoichiometry N” value in data set [4] was 1 zGDNF^mat protomers per zGFRα1 (10:10).
In the case of B5, in data set [1], the “stoichiometry N” value was determined as 5 protomers in each ring.
With B6, binding in data set [2] was characterised by a dissociation constant (Kd) of 48 nM.
In the case of B7, binding in data set [2] was characterised by a dissociation constant (Kd) of 32 nM.
The same measure, in the same setting: with B8 the figure was 33 nM; with B9, 91 nM.
For B10, in data set [5], the binding result is reported as “binds”.
